Experiments:
[1] = tested on: APAGLIVPYN (SEQ ID NO: 5)
[2] = tested on: IVGRPRHQGV (SEQ ID NO: 7)

Sequence of MMP-8 (chain, as listed by the source): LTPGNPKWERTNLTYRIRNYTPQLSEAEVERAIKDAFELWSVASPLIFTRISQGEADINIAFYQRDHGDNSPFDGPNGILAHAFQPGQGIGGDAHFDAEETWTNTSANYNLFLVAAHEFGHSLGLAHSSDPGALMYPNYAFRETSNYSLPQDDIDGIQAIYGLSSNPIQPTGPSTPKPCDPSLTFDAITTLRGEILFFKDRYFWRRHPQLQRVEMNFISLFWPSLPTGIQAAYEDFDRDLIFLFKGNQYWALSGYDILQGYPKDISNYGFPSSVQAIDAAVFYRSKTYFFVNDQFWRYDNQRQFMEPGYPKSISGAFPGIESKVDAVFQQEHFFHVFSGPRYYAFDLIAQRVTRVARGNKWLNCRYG
Sequence of MMP-9 (chain, as listed by the source): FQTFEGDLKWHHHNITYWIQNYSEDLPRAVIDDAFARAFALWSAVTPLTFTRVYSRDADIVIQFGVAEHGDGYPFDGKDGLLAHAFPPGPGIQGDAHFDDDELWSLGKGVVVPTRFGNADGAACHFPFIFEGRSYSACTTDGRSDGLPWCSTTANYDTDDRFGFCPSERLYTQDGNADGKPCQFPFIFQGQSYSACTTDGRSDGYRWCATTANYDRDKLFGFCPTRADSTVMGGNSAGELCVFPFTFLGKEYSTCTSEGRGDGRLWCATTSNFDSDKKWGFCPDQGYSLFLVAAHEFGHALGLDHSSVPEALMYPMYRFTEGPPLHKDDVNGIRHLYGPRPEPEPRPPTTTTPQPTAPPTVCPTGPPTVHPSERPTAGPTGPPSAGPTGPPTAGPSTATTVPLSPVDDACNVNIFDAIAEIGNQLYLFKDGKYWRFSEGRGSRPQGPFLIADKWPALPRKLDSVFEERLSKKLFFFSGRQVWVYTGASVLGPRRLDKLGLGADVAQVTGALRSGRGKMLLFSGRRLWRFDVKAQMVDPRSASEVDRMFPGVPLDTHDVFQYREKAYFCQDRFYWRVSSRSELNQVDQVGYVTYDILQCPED
Sequence of MMP-10 (chain, as listed by the source): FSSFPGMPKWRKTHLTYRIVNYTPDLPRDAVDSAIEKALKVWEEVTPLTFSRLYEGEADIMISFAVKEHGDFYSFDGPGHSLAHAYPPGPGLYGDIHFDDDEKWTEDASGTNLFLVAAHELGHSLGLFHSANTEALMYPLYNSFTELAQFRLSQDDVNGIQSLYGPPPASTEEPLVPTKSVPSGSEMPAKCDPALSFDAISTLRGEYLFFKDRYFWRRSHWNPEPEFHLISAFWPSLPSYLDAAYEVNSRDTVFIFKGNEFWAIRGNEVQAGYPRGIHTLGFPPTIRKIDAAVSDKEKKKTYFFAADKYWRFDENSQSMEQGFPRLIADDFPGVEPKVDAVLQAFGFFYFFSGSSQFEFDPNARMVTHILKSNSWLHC

Row | Substance | initial rate of cleavage by recombinant protease [1] [µM/h] | initial rate of cleavage by recombinant protease [2] [µM/h] | initial rate of cleavage by recombinant protease (PANLVAPDP (SEQ ID NO: 6)) [µM/h] | initial rate of cleavage by recombinant protease (PVSLRSGS (SEQ ID NO: 1)) [µM/h] | initial rate of cleavage by recombinant protease (RPLALWRS (SEQ ID NO: 3)) [µM/h] | initial rate of cleavage by recombinant protease (RSKYLATA (SEQ ID NO: 8)) [µM/h] | initial rate of cleavage by recombinant protease (TQKPLGLS (SEQ ID NO: 4)) [µM/h]
1 | MMP-8 | 0.5 | 0 | 7.2 | 0.1 | 0.2 | 0 | 0.1
2 | MMP-9 | 1.8 | 0 | 8.8 | 6.5 | 0.2 | 0 | 0.3
3 | MMP-10 | 1.6 | 0 | 1.8 | 0 | 0 | 0 | 0

— patent US20230144608
